According to patent publication US20110177064A1, “Compositions and Methods for Treatment of Ovarian Cancer” (priority 2010, published 2011):
Where “and” joins values, the source holds several entries; their conditions need not be identical. Identical values can stand only once.

Tests used:
[1] = tested on: COLO 720E human ovarian carcinoma xenografts; assay: Combination therapy of established subcutaneous COLO 720E xenografts; assay type: in vivo, Athymic nude mice; set-up: key to activity (NCI standards): Percent T/C values less than or equal to 42% and/or LCK values of 0.5 or greater are considered active; percent T/C values less than 10% are considered highly active
Text: (§1) Mice were inoculated with human ovarian cancer cell lines and allowed to become established (average tumor size of about 100 mm^3) prior to treatment. Conjugate dosing is described based on DM1 concentration. Efficacy is reported as both the % of tumor growth for treated vs. control (% T/C) and log cell kill (LCK) determined from the tumor doubling time and the tumor growth delay due to the treatment.
The anti-tumor effect of a combination of huN901-DM1 and paclitaxel plus carboplatin was evaluated in an established subcutaneous xenograft model of ovarian cancer. Athymic nude mice were inoculated with COLO 720E human ovarian carcinoma cells (1×10^7 cells/animal) injected subcutaneously into the right flank. When the tumors reached about 80 mm^3 in size (10 days after tumor cell inoculation), the mice were randomly divided into six groups (6 animals per group). Mice were treated with the single agent IMGN901 at a dose of 13 mg/kg once weekly for three weeks (day 10, 17 and 24 post tumor cell inoculation) administered intravenously. Two additional groups of mice were treated with the combination chemotherapy regimen paclitaxel/carboplatin at two dose levels: a high-dose group of paclitaxel (20 mg/kg iv, weekly for 3 weeks)/carboplatin (100 mg/kg ip, single injection) and a low-dose group of paclitaxel (10 mg/kg iv, weekly for 3 weeks)/carboplatin (100 mg/kg ip, single injection). Two additional groups were treated with the combination of IMGN901 and either high-dose or low-dose paclitaxel/carboplatin with the same doses and routes of administration as for individual treatments. Tumor growth was monitored by measuring tumor size twice per week. Tumor size was calculated with the formula: length×width×height×½.

[2] = tested on: COLO 720E human ovarian carcinoma xenografts; assay: Low-dose IMGN901 combination therapy of established subcutaneous COLO 720E xenografts; assay type: in vivo, mice; settings: single agent IMGN901 11.4 mg/kg qw×3
Description: as §1
The anti-tumor effect of reduced doses of IMGN901 and paclitaxel plus carboplatin was evaluated in established subcutaneous COLO 720E xenografts. When the tumors reached about 100 mm^3 in size (14 days after tumor cell inoculation), the mice were randomly divided into groups of 6 animals each based on tumor volume. Mice were treated with the single agent IMGN901 at a dose of 11.4 mg/kg (qw×3) or the chemotherapeutic combination paclitaxel/carboplatin at either a high-dose (paclitaxel 20 mg/kg, qw×3/carboplatin, 100 mg/kg ip, single injection) or a low-dose (paclitaxel 10 mg/kg, qw×3/carboplatin, 100 mg/kg ip, single injection).

[3] = tested on: COLO 720E human ovarian carcinoma xenografts; assay: Dose-response anti-tumor activity in established subcutaneous COLO 720E xenografts; assay type: in vivo, SCID mice; set-up: key to activity (NCI standards): Percent T/C values less than or equal to 42% and/or LCK values of 0.5 or greater are considered active; percent T/C values less than 10% are considered highly active; settings: for complete regressions (CR) / partial regressions (PR) / mice remaining tumor free at the end of the study: 6 mice; for mice remaining tumor free at the end of the study: 119 days
Description: as §1
The anti-tumor effect of IMGN901 was evaluated in an established subcutaneous xenograft model of ovarian carcinoma. SCID mice were inoculated with COLO 720E ovarian carcinoma cells (1×10^7 cells/animal) injected subcutaneously into the right flank. (The COLO 720E human ovarian adenocarcinoma cell line was obtained from the European Collection of Cell Cultures (ECACC, catalog no. 93072111).) When the tumors reached about 100 mm^3 in size (10 days after tumor cell inoculation), the mice were randomly divided into four groups (6 animals per group). Mice were treated with the single agent IMGN901 at 6, 12 and 24 mg/kg, respectively, administered intravenously once weekly for three weeks (day 10, 17 and 24). A control group of animals received PBS administered intravenously at the same schedule. Tumor growth was monitored by measuring tumor size twice per week. Tumor size was calculated with the formula: length×width×height×½.

[4] = tested on: OVCAR-3 human ovarian carcinoma xenografts; assay: Anti-tumor effect in established subcutaneous OVCAR-3 ovarian carcinoma xenografts; assay type: in vivo, SCID mice; set-up: key to activity (NCI standards): Percent T/C values less than or equal to 42% and/or LCK values of 0.5 or greater are considered active; percent T/C values less than 10% are considered highly active
Description: as §1
The anti-tumor effect of IMGN901 was evaluated in an established subcutaneous xenograft model of ovarian carcinoma. SCID mice were inoculated with OVCAR-3 ovarian carcinoma cells (1×10^7 cells/animal) injected subcutaneously into the right flank. When the tumors reached about 100 mm^3 in size (24 days after tumor cell inoculation), the mice were randomly divided into three groups (6 animals per group). Mice were treated with the single agent IMGN901 at 6.5 mg/kg and 13 mg/kg, respectively, administered intravenously once weekly for three weeks (day 24, 31, […]). A control group of animals received PBS administered intravenously at the same schedule. Tumor growth was monitored by measuring tumor size twice per week. Tumor size was calculated with the formula: length×width×height×½.

[5] = single-agent IMGN901 13 mg/kg iv once weekly for three weeks
[6] = 24 mg/kg iv once weekly for three weeks
[7] = IMGN901 13 mg/kg iv once weekly for three weeks

B1: IMGN901 (conjugate, chains of the INN, looked up)
VH: QVQLVESGGGVVQPGRSLRLSCAASGFTFSSFGMHWVRQAPGKGLEWVAYISSGSFTIYYADSVKGRFTISRDNSKNTLYLQMNSLRAEDTAVYYCARMRKGYAMDYWGQGTLVTVSS
VL: DVVMTQSPLSLPVTLGQPASISCRSSQIIIHSDGNTYLEWFQQRPGQSPRRLIYKVSNRFSGVPDRFSGSGSGTDFTLKISRVEAEDVGVYYCFQGSHVPHTFGQGTKVEIK
modifications: mertansine (DM1) conjugate
With B1 the T/C [1, 5] was 32%, the “activity (NCI standards)” value [1, 5] was “active” and the complete regression [1, 5] was “one of six”. For the same molecule, the partial tumor regressions [1, 5] was “Two of six”, the tumor-free survivors ([1]; single-agent IMGN901 13 mg/kg, end of study day 123) was “no tumor-free survivors” and the Response [2] was “inactive”. The T/C [2] was 62%, the CR ([2]; 11.4 mg/kg) was “no partial (PR) or complete regressions (CR) and 0/6” and the PR ([2]; 11.4 mg/kg) was “no partial (PR) or complete regressions (CR) and 1/6”. The “activity (NCI standards)” value ([3]; 6 mg/kg iv once weekly for three weeks) was “inactive”, the “activity (NCI standards)” value ([3]; 12 mg/kg iv weekly for 3 weeks) was “active” and the “mice exhibiting tumor regressions” value ([3]; 12 mg/kg iv weekly for 3 weeks) was “Four of 6”. For the same molecule, the “tumor growth inhibition value (T/C)” value ([3]; 12 mg/kg iv weekly for 3 weeks) was 18%, the “complete regressions (CR)” value ([3]; 12 mg/kg iv weekly for 3 weeks) was 2 and the “partial regressions (PR)” value ([3]; 12 mg/kg iv weekly for 3 weeks) was 4. The “mice remaining tumor free at the end of the study” value ([3]; 12 mg/kg iv weekly for 3 weeks) was “one”, the “activity (NCI standards)” value [3, 6] was “highly active (percent T/C values less than 10% are considered highly active)” and the “mice exhibiting tumor regressions” value [3, 6] was “six”. The “tumor growth inhibition value (T/C)” value [3, 6] was 0%, the “complete regressions (CR)” value [3, 6] was 6 and the “partial regressions (PR)” value [3, 6] was 6. For the same molecule, the “mice remaining tumor free at the end of the study” value [3, 6] was “four”, the “activity (NCI standards)” value ([4]; IMGN901 6.5 mg/kg iv once weekly for three weeks) was “inactive” and the “activity (NCI standards)” value [4, 7] was “active”. For the same molecule, the “tumor growth inhibition (T/C)” value [4, 7] was 21%.
